PMC7534798

T1: SPRTN-EQ (human, UniProt Q9H040 1-489, E112Q)
T1 sequence: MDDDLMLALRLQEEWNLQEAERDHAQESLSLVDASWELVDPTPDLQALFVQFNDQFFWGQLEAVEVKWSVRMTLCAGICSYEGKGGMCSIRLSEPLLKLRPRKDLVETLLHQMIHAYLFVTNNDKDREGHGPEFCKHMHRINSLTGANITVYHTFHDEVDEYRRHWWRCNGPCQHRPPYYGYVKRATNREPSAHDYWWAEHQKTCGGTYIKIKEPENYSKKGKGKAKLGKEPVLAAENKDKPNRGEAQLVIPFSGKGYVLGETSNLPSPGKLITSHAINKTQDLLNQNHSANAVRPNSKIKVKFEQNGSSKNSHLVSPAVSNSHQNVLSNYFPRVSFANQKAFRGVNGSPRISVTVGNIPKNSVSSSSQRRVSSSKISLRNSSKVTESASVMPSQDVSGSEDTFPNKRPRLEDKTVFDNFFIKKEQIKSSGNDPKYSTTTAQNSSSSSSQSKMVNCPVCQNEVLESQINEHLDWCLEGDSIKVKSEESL

T2: SPRTN ZBD (human, UniProt Q9H040 151-215)
T2 sequence: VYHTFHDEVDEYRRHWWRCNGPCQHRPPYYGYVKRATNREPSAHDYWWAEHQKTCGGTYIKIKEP

T3: SPRTN ZBD-BR (human, UniProt Q9H040 151-245)
T3 sequence: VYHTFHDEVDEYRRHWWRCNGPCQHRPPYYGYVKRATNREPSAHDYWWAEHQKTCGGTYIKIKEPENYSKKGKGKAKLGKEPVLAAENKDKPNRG

B1: 3' DPC ss (X30) (ssDNA)
DNA: ACCAGTGCCTTGCTAGGACATCTTTGCCCT
modifications: T30 is SH-C9-dT crosslinked to protein G; 3' phosphate
B2: ss/dsDNA junction DPC (C3A11XA12C3 + 15-mer) (mixed)
DNA 1: CCCAAAAAAAAAAATAAAAAAAAAAAACCC
DNA 2: GGGTTTTTTTTTTTT
modifications: T15 is SH-C9-dT crosslinked to protein G; 3' phosphate on strand 1
B3: internal DPC ss (X15) (ssDNA)
DNA: ACCAGTGCCTTGCTTGGACATCTTTGCCCA
modifications: T15 is SH-C9-dT crosslinked to protein G; 3' phosphate
B4: internal DPC dsDNA (X15) (dsDNA)
DNA 1: ACCAGTGCCTTGCTTGGACATCTTTGCCCA
DNA 2: TGGGCAAAGATGTCCAAGCAAGGCACTGGT
modifications: T15 is SH-C9-dT crosslinked to protein G; 3' phosphate on strand 1
B5: 5' DPC ss (X1) (ssDNA)
DNA: TCCAGTGCCTTGCTAGGACATCTTTGCCCA
modifications: T1 is SH-C9-dT crosslinked to protein G; 3' phosphate
B6: dsDNA DPC (C3A11XA12C3 + 30-mer) (dsDNA)
DNA 1: CCCAAAAAAAAAAATAAAAAAAAAAAACCC
DNA 2: GGGTTTTTTTTTTTTATTTTTTTTTTTGGG
modifications: T15 is SH-C9-dT crosslinked to protein G; 3' phosphate on strand 1
B7: 15-mer hairpin (oJS_106) (structured_DNA)
DNA: GATGTCCTAGCAAGG
B8: poly(dA) 15-mer (ssDNA)
DNA: AAAAAAAAAAAAAAA

The binders below were run against T1, SPRTN-EQ (assay: EMSA).

Binding result, binds:
B1
B2
B3
B4
B5
B6
B7

The binders below were run against T2, SPRTN ZBD (assay: NMR).

Binding result, binds:
B8

These binders were tested against T3, SPRTN ZBD-BR (assay: NMR).

Binding result, binds:
B8
